In paper PMC4631838, “Molecular architecture of the yeast Mediator complex” (eLife, 2015):

T1: Med5 (Nut1), Mediator Tail module subunit (S. cerevisiae, UniProt P53114 1-1132)
T1 construct: Med5 (Nut1), S. cerevisiae, endogenous; source: endogenous, S. cerevisiae CB010 double-tagged strain; within the purified native holoenzyme
T1 sequence (looked up): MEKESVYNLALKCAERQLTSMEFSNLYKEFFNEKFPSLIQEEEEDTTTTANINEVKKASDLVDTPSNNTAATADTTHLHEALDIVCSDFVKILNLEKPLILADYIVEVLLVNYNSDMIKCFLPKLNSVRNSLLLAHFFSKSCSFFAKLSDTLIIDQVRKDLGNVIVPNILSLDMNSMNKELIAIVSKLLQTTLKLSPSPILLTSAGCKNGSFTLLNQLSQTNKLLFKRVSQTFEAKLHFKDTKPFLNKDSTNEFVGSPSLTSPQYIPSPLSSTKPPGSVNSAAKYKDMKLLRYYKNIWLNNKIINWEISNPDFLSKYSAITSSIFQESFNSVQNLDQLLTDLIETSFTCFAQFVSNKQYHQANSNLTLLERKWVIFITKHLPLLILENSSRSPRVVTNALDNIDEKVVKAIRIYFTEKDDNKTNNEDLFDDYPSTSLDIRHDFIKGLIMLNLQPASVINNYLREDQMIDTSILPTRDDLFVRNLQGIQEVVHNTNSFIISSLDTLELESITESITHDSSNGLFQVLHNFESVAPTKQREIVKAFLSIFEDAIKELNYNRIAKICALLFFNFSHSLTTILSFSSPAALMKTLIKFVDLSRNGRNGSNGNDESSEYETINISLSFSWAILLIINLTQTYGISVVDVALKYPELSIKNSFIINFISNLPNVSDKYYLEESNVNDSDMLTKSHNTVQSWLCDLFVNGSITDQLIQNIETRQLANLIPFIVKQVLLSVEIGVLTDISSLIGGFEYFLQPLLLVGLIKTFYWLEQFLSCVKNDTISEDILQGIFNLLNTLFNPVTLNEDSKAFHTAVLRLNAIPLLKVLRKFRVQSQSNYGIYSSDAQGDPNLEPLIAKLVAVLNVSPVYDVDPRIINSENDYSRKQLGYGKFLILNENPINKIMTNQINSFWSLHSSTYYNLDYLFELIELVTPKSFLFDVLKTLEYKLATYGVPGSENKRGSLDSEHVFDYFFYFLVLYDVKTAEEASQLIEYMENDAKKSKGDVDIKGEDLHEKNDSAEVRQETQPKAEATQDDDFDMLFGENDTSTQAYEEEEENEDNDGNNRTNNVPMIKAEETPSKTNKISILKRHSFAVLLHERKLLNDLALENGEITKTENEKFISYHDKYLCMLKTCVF

T2: Med14 (Rgr1), Mediator subunit (S. cerevisiae, UniProt P19263 1-1082)
T2 construct: Med14 (Rgr1), S. cerevisiae, endogenous, residues 1-1082 spoken of; source: endogenous, S. cerevisiae CB010 double-tagged strain; within the purified native holoenzyme
T2 sequence (looked up): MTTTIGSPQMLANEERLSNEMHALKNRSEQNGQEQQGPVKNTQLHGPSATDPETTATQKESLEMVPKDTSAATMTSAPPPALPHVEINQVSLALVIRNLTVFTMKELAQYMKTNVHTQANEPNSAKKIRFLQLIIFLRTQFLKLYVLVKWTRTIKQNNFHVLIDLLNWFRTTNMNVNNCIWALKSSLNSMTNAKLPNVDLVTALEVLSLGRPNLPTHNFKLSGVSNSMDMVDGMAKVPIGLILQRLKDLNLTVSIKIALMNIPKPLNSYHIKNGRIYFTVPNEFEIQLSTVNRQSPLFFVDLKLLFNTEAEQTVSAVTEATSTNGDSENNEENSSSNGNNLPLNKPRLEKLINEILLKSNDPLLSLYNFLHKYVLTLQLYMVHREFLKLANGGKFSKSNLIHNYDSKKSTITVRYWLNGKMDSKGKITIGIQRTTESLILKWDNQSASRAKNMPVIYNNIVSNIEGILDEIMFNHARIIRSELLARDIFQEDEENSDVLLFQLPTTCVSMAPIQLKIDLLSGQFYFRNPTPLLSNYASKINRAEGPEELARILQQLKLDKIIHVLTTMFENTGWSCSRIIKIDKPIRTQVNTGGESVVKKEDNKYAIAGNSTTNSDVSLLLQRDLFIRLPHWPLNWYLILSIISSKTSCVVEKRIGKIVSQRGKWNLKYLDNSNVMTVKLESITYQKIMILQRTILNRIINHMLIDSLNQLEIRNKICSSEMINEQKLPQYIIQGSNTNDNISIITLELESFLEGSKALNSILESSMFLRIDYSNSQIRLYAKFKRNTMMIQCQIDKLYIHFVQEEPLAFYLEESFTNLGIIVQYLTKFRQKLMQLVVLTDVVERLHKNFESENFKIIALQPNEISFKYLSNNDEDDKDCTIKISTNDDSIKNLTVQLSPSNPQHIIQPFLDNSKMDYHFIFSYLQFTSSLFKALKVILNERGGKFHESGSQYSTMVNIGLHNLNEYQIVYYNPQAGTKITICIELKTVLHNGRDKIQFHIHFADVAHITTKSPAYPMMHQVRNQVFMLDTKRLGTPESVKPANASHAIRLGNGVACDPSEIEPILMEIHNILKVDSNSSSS

T3: Med1, Mediator Middle module subunit (S. cerevisiae, UniProt Q12321 1-566)
T3 construct: Med1, S. cerevisiae, endogenous; source: endogenous, S. cerevisiae CB010 double-tagged strain; within the purified native holoenzyme
T3 sequence (looked up): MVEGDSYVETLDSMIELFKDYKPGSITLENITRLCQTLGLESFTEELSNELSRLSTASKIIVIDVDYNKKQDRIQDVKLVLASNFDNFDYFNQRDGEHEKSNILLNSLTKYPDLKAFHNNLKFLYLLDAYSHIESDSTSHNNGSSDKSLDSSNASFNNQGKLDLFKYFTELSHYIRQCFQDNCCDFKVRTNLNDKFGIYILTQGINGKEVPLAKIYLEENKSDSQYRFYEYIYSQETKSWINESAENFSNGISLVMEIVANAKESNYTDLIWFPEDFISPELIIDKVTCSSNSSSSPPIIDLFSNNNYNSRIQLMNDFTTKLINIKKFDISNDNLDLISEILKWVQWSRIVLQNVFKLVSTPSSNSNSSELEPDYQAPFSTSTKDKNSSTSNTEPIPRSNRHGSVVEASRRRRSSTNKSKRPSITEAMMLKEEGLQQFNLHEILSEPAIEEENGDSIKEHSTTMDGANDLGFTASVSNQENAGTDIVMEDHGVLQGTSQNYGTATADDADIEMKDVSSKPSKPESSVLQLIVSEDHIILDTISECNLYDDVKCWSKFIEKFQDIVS


What was measured:
Test in all cases: cross-linking; BS3 (unlabeled, or 50:50 with 2H12-labeled BS3) on the purified native holoenzyme; 150 mM NaPO4, 150 mM KOAc, pH 7.5, 5% glycerol, 2 mM DTT; procedure A 2.7 mM reagent 120 min on ice; trypsin digest, LC-MS/MS, Protein Prospector
Details in all cases: both partners purified
[1] = biological target: T1, Med5 (Nut1), Mediator Tail module …
[2] = biological target: T2, Med14 (Rgr1), Mediator subunit
[3] = biological target: T3, Med1, Mediator Middle module subunit

Binder | binding result [1] | binding result [2] | binding result [3]
Med15 (Gal11), Mediator Tail module subunit (natural protein, S. cerevisiae, UniProt P19659 1-1081, looked up, Med15 (Gal11), S. cerevisiae, endogenous; source: endogenous, S. cerevisiae CB010 double-tagged strain; within the purified native holoenzyme) MSAAPVQDKDTLSNAERAKNVNGLLQVLMDINTLNGGSSDTADKIRIHAKNFEAALFAKSSSKKEYMDSMNEKVAVMRNTYNTRKNAVTAAAANNNIKPVEQHHINNLKNSGNSANNMNVNMNLNPQMFLNQQAQARQQVAQQLRNQQQQQQQQQQQQRRQLTPQQQQLVNQMKVAPIPKQLLQRIPNIPPNINTWQQVTALAQQKLLTPQDMEAAKEVYKIHQQLLFKARLQQQQAQAQAQANNNNNGLPQNGNINNNINIPQQQQMQPPNSSANNNPLQQQSSQNTVPNVLNQINQIFSPEEQRSLLQEAIETCKNFEKTQLGSTMTEPVKQSFIRKYINQKALRKIQALRDVKNNNNANNNGSNLQRAQNVPMNIIQQQQQQNTNNNDTIATSATPNAAAFSQQQNASSKLYQMQQQQQAQAQAQAQAQAQAQAQAQAQAAQAAQAQAQAQAQAQAQAQAQAQAQAQAQAQAQAQAQAHAQHQPSQQPQQAQQQPNPLHGLTPTAKDVEVIKQLSLDASKTNLRLTDVTNSLSNEEKEKIKMKLKQGQKLFVQVSNFAPQVYIITKNENFLKEVFQLRIFVKEILEKCAEGIFVVKLDTVDRLIIKYQKYWESMRIQILRRQAILRQQQQMANNNGNPGTTSTGNNNNIATQQNMQQSLQQMQHLQQLKMQQQQQQQQQQQQQQQQQQQQQQQHIYPSSTPGVANYSAMANAPGNNIPYMNHKNTSSMDFLNSMENTPKVPVSAAATPSLNKTINGKVNGRTKSNTIPVTSIPSTNKKLSISNAASQQPTPRSASNTAKSTPNTNPSPLKTQTKNGTPNPNNMKTVQSPMGAQPSYNSAIIENAFRKEELLLKDLEIRKLEISSRFKHRQEIFKDSPMDLFMSTLGDCLGIKDEEMLTSCTIPKAVVDHINGSGKRKPTKAAQRARDQDSIDISIKDNKLVMKSKFNKSNRSYSIALSNVAAIFKGIGGNFKDLSTLVHSSSPSTSSNMDVGNPRKRKASVLEISPQDSIASVLSPDSNIMSDSKKIKVDSPDDPFMTKSGATTSEKQEVTNEAPFLTSGTSSEQFNVWDWNNWTSAT | binds | binds | –
Med17 (Srb4), Mediator Head module subunit (natural protein, S. cerevisiae, UniProt P32569 1-687, looked up, Med17 (Srb4), S. cerevisiae, endogenous, residues 1-687 spoken of; cross-linking was done after cleavage; also called Med17p; source: endogenous, S. cerevisiae CB010 double-tagged strain; within the purified native holoenzyme; not shown: TAP, N-terminal, cleaved) MTTEDPDSNHLSSETGIKLALDPNLITLALSSNPNSSLHSPTSDEPVPESAGKADTSIRLEGDELENKTKKDNDKNLKFLKNKDSLVSNPHEIYGSMPLEQLIPIILRQRGPGFKFVDLNEKELQNEIKQLGSDSSDGHNSEKKDTDGADENVQIGEDFMEVDYEDKDNPVDSRNETDHKTNENGETDDNIETVMTQEQFVKRRRDMLEHINLAMNESSLALEFVSLLLSSVKESTGMSSMSPFLRKVVKPSSLNSDKIPYVAPTKKEYIELDILNKGWKLQSLNESKDLLRASFNKLSSILQNEHDYWNKIMQSISNKDVIFKIRDRTSGQKLLAIKYGYEDSGSTYKHDRGIANIRNNIESQNLDLIPHSSSVFKGTDFVHSVKKFLRVRIFTKIESEDDYILSGESVMDRDSESEEAETKDIRKQIQLLKKIIFEKELMYQIKKECALLISYGVSIENENKVIIELPNEKFEIELLSLDDDSIVNHEQDLPKINDKRANLMLVMLRLLLVVIFKKTLRSRISSPHGLINLNVDDDILIIRPILGKVRFANYKLLLKKIIKDYVLDIVPGSSITETEVEREQPQENKNIDDENITKLNKEIRAFDKLLNIPRRELKINLPLTEHKSPNLSLMLESPNYCNALIHIKFSAGTEANAVSFDTTFSDFKEVEDFLHFIVAEYIQQKKV | – | binds | –
Med10 (Nut2), Mediator Middle module subunit (natural protein, S. cerevisiae, UniProt Q06213 1-157, looked up, Med10 (Nut2), S. cerevisiae, endogenous; source: endogenous, S. cerevisiae CB010 double-tagged strain; within the purified native holoenzyme) MNGNSTNNEQLQQELATTQDQVASIIESFVELGVSIYDFPGTPEATKGMITNLQRNVDRLYKLNVRSNDPQSSLSKVDIPLEVVQYIEDGRNPDIYTREFVEAIRRSNQYQRGKMHGLKQLRDSLADKIVDEFPELKEPVEDIIKRTSPIDNVSNTH | – | binds | –
Med2, Mediator Tail module subunit (natural protein, S. cerevisiae, UniProt Q12124 1-431, looked up, Med2, S. cerevisiae, endogenous; source: endogenous, S. cerevisiae CB010 double-tagged strain; within the purified native holoenzyme) MVVQNSPVSSVHTANFSERGSNTRTMTYKNKLTVCFDDILKVGAEMMMQQQLKNVQLDSYLVNGFSQSQQKLLKEKVKLFHGILDDLETSLSQSSSYLETLTALGKEKEKEREEAEKKRAEQENMRKVREQEELKKRQELEEASQQQQLQQNSKEKNGLGLNFSTTAPANTTDANGSKENYQELGSLQSSSQTQLENANAANNGAAFSPLTTTRIQSQQAQPSDVMFNDLNSMDISMFSGLDSTGFDSTAFNATVDETKGFDDNDSGNNYNDINISSIENNINNNINSTKNGKDNNNESNKNNNGDEKNKNNNEDNENNNNSSEKNNNNNNNNNNNNDDNGNNNNNNSGNDNNNTTNNDSNNKNNSITTGNDNENIVNNDLPTTVVSNPGDNPPPADNGEEYLTLNDFNDLNIDWSTTGDNGELDLSGFNI | – | binds | –
Med4, Mediator Middle module subunit (natural protein, S. cerevisiae, UniProt Q12343 1-284, looked up, Med4, S. cerevisiae, endogenous; source: endogenous, S. cerevisiae CB010 double-tagged strain; within the purified native holoenzyme) MSVQDTKAVEFSMGHIRSSSVSLVAEATSNTNSEDKLSKVQLYEDLCRYEDTLSKLVESVDRFKPNLDIAKDLIRTDEALFENVKLLAEYDNIYRNLQKIDKDSEELDSKTRKILEILNECHDELKALPMLEQVEFEKNTILQQRSKINSTELLDYATKLSKFTKIPPTFDKGAVGPNNFIWPAEDALRRGMLAMASLHSKELTRIPGEEVEETEVPTVPPSQSEEQKGQMAKKEGTPKTDSFIFDGTAKEVGDEADNTKDKEKEENNDDALDLDLDLFDPDDF | – | binds | binds
